The nanobody polyreactivity screen of Harvey et al. (2022)

Assay: yeast display, Sf9 membrane polyspecificity reagent, FACS + sequencing; frameworks hold sequencing errors
Procedure, shortened: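 Galactose induction of a Saccharomyces cerevisiae BJ5465 synthetic nanobody display library ran 36–48 hours. The cells were then stained for 1 hour at 4 °C with 10% biotinylated, detergent-solubilized Sf9 membrane reagent, pulled down on streptavidin microbeads and FACS-sorted into low and high (top ~1%) gates on expression and reagent-binding fluorescence. Labels for polyreactivity follow the gate of origin.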

Question: With “QVQLVESGGGLVQAGGSLRLSCAASGFTFRAYAMGWYRQAPGKERELVAAITSGTRTYYADSVKGRFTISRDNAKNTVYLQMNSLKPEDTAVYDCAVGFILPSTFTRMYYWGQGTQVTVSS” as the sequence, how does the “polyreactivity (PSR sort gate)” value read?
Answer: high polyreactivity

Question: For “QVQLVESGGGLVQAGGSLRLSCAASGSIFYRNAMGWYRQAPGKERELVAAITWSGVNTYYADSVKGRFTISRDNAKNTVYLQMNSLKPEDTAVYYCAVPSRYWLNRGFDYWGQGTQVTVSS”, which “polyreactivity (PSR sort gate)” value is on record?
Answer: low polyreactivity

Question: For “QVQLVESGGGLDQAGGSLRLSCADSASTFYRYAKGWSRQAPGKEWELVAAITRTGGSTYADSVKGRFTISRDNAKNTVYLQMNSLKPEDTAVYFCAVQRYFVSSISPFYYWGQGTQVTVSS”, which “polyreactivity (PSR sort gate)” value is on record?
Answer: low polyreactivity

Question: Which “polyreactivity (PSR sort gate)” value does the source give for “QVQLVESGGGLVQAGGSLRLSCAASGSIFPSYSMGWYRQAPGKERELVAVISVSGGRTYYADSVKGRFTISRDNAKNTVYLQMKSLKPEDTAVYYCAKDRPQEYDYWGQGTQVTVSS” here?
Answer: low polyreactivity

Question: For “QVQLVESGGGLVQAGGSLRLSCAASGRTIQTYTMGWYRQAPGKERELDAVITTRGGRTYYADSVKGRFTISRDNAKNTVYLQMNSLKPEDTAVYYCNKGIPTRSVRSYDYWGQGTQVTVSS”, which “polyreactivity (PSR sort gate)” value is on record?
Answer: high polyreactivity

Question: With “QVLLQESGGGLVQAGGSLRLSCAASGNIFSAGGMGWYRQAPVNERELVAGIGTGTSTNYADSVKGRFTISRDNSKNTVYLQMNSMKPEDTAVYYCAAAYYSGLSHWYWGQGTQVTVSS” as the sequence, how does the “polyreactivity (PSR sort gate)” value read?
Answer: low polyreactivity

Question: For “QVQLVESGGGLVQAGGSLRLSCAASGSIFPSYARGWDRKAPGKERELVAAISSSGGSTYYADSVKGRFTISRDNAKNTVYLQMNSLKPEDTAVYYCATRYRRWSTVVQDDYWGQGTQVTVSS”, which “polyreactivity (PSR sort gate)” value is on record?
Answer: low polyreactivity

Question: Which “polyreactivity (PSR sort gate)” value does the source give for “QVQLVESGGGLVQAGGSLRLSCAASGRTFKYNAMGWYRQAPGKERELVAAISNRGGSTYYADSVKGRFTISRDNAKNTVYLQMNSLKPEDTAVYYCAVRAVYRWSSGYGYWGQGTQVTVSS” here?
Answer: high polyreactivity

Question: Which “polyreactivity (PSR sort gate)” value does the source give for “QVQLVESGGGLVQAGGSLRLSSAASGFTFEENAMGWYRQAPGKERELVAAINWSGGNTYYADSVKGRFTISRDNAKNTVYLQMNSLKPEDTAVYYCAAVSTRYYYSVGPYYGYDYWVQGTQVTVSS” here?
Answer: high polyreactivity

Question: With “QVQHVESGGGLVQAGGSLRLSCASSGSIFVGNAMGWYRQAPGKERELVAAISRRGGRPYYADSVKGRFTISRDKAKNTVYLQMNSLKPEDTAVYYCAAEYTYQNRIRFDYWGQGTQVTVSS” as the sequence, how does the “polyreactivity (PSR sort gate)” value read?
Answer: high polyreactivity

Question: For “QVQLVESGGGLVQAGGSLRLSCAASGIIFQGYVMGWYRQAPGKERELVAVISRTRGSTYYADSVKGRFTISRDNAKNTVYLQMNSLKPEDTAVYYCAAGTPRLRYLQGHRMNYWGQGTQVTVSS”, which “polyreactivity (PSR sort gate)” value is on record?
Answer: high polyreactivity

Question: For “QVQLVETGGGLVQAGGSLRLSCAASGSIFGFYAMGWYRQAPGKERELVAAIDSGDSTNYADSVKGRFTISRDNAKNTVYLQMNSLKPEDTAVYYCYAEAWWYFWFDYWGQGTQVTVSS”, which “polyreactivity (PSR sort gate)” value is on record?
Answer: low polyreactivity

Question: For “QVQLVESGGGLVQAGGSLRLSCAASGITSKQYAMVWYRQAPGKERELVAAISGSGTRTYYADSVKGRFTISRDNAKNTVNLQMNSLKPEDTAVYYCAAYGYSRCHDDWGQVTQVTVSS”, which “polyreactivity (PSR sort gate)” value is on record?
Answer: high polyreactivity

Question: With “QVQLVESGGGLVQAGGSLRLSCAASGSTFKSYVMGWYRQAPGKERELVAAISSGDSTYYADSVKGRFTISRDNAKNTVYLQMNSLKPEDTAVYYCNADVSLDDYDYWGQGTQVTVSS” as the sequence, how does the “polyreactivity (PSR sort gate)” value read?
Answer: low polyreactivity

Question: With “QVQLVESGGGLVQAGGSLRLSCAASGRTFSAYARGWYRQAPGKERELVAAISRRGGSTYYADSVKGRFTISRDNAKNTVYLQMNSLKPEDTAVYYCAADVYKQYGYYYWGQGTLVTVSS” as the sequence, how does the “polyreactivity (PSR sort gate)” value read?
Answer: high polyreactivity

Question: For “QVQLVESGGGLVQAGGSLRLSCASSGNIFRKYAMAWYRQAPGKERELVAITSGTNTYYADSVKGRFTISRDNAKNTVYVQMNSLKPEDSAVYYCNKSGFRSSHKYDYWGQGTQVTVSS”, which “polyreactivity (PSR sort gate)” value is on record?
Answer: low polyreactivity

Question: For “QVQLVESGGGLVQAGGSLRLSCAASGRTFRYYAMGWYRQAPGKERELVAAISWNGANTYYADSVKGRFTISRDNAKNTVYLQMNSLKPEDTAVYYCAATYYRWKGYDYWGQGTQVTVSS”, which “polyreactivity (PSR sort gate)” value is on record?
Answer: high polyreactivity

Question: For “QVQQQESGGGLVQAGGSLRLSCAASGTIFQLTVMGRYRQAPGKERELVASIDYGGNTNYADSVKGRFTISRDNAKKTVYLQKYIVKPEDTAVYYCAAYSDSWTTHPYWGQVTQVTVSS”, which “polyreactivity (PSR sort gate)” value is on record?
Answer: low polyreactivity

Question: Which “polyreactivity (PSR sort gate)” value does the source give for “QVQLVETGGGLVQAGRSLRLSCAASGSNFRSYARGWYRQAPGKERELVAAITSSSGSTDYADSVKGRFTSSRDNAKNTVYLQMNSLKPEDTAVYYCNAPYWKSRFRAYYHWGQGTQVTVSS” here?
Answer: high polyreactivity

Question: Which “polyreactivity (PSR sort gate)” value does the source give for “QVQLVQSGGGLVQAGGSLRLSCADSGRTFTRYTMGWYRQAPGKERELVAAISSGGSTTYADSVKGRFTISRDNAKNTVYLQMNSLKPEDTAVYYCAAGLVYRGYRRDYWGQGTQVTVSS” here?
Answer: low polyreactivity

Question: With “QVQLVESGGGLVQAGGSLRLSCAASGSTFWFYAMGWYRQAPGKERELVAAISRSSGSTYYADSVKGRFTISRDNAKNTVYLQMNSLKPEDTAVYYCAKGWSSVPTQYDYWGQGTQVTVSS” as the sequence, how does the “polyreactivity (PSR sort gate)” value read?
Answer: low polyreactivity

Question: For “QVQLVESGGGLVQAGGSLRLSCAASGITFRWNAMGWYRPAPGKERELVAAITTRGGGTYYADSVKGRFTISRDNAKNTVYLQMNSMKPEDTAVYYCAAKKSRYPYNYWGQGTQVTVSS”, which “polyreactivity (PSR sort gate)” value is on record?
Answer: high polyreactivity

Question: For “QVQLVESGGGLVQAGGTLRLSCAASGIIFYSNAMGWYRQAPGKEWELVAGISKSGGSTYYADSVKGRFTISRDNAKNNVYLHMNSLKPEDTAVYYCAVRGGGRYRSWGYDYWGQGTQVTVSS”, which “polyreactivity (PSR sort gate)” value is on record?
Answer: high polyreactivity

Question: Which “polyreactivity (PSR sort gate)” value does the source give for “QVQLVESGGAIVQAGRSLRLSCAASGNIFESYGMGWYRQAPGKERELVATINTSSGSTYYADSVKGRFTISRDNAKYTVYLQMNRLKPEDTAVYYCAVRPKTSWYSWYYLGQGTQVTVSS” here?
Answer: low polyreactivity

Question: With “QVQLVESGGGLVQAGGSLRLSCAASGFIFSTYAMGWYRQAPGKERELVAAISWSGGRTNYADSVKGRFTISRDNAKNTVYLQMNSLKPEDTAVYYCAVGGERGARIGSNHRGSRYDYWGQGTQVTVSS” as the sequence, how does the “polyreactivity (PSR sort gate)” value read?
Answer: high polyreactivity

Question: With “QVQLQESGAGLVQAGGDLRLSCAASGNIFRDYIMGWYRQAPGKEREFVAGIDRGANTNYADSVKGRFTISRDNAKNTVYLQMNSLKPEDTAVYYCAVHTAIVPDFIYWGQGTQVTVSS” as the sequence, how does the “polyreactivity (PSR sort gate)” value read?
Answer: low polyreactivity

Question: For “QVQLVESGGGLVQAVGSLRLSCAASGFIFVGYAMGWYRQAPGKERELVAAITGGGTTYYADSVKGRFTISRDNAKNSVYLQMNSLKPEETAVYYCAKDRPRKDTQRWRYGHWGQGTQVTVSS”, which “polyreactivity (PSR sort gate)” value is on record?
Answer: high polyreactivity

Question: Which “polyreactivity (PSR sort gate)” value does the source give for “QVQLVESGEGLVQAGGSLRLSCAASGSIFSLNAMGWYRQAPGKERELVAAISGRGGSTYYADSVKGRFTISRDNAKNTVYLQMNSLKPEDTAVYYCAARFSRTFLGYYYWGQGTQVTVSS” here?
Answer: high polyreactivity

Question: With “QVQLVESGGGLVQAGGSLRLSCAASGFIFDDYAMGWYRQAPGKERELVAAISASGGRTFYADSVKGRFTISRDNAKNTVYLQMNSLKPEDTAVYYCATIVDTYVFRYYYWGQGTQVTVSS” as the sequence, how does the “polyreactivity (PSR sort gate)” value read?
Answer: high polyreactivity

Question: For “QVQLVDSGGGLVQPGGSLRLRCAASGGIFLQNAMGWYRQAPGTERELVAAISWSAGSTYYADSVKGRFTISRDNAKNTVYLDMNCLKPEDTAVYYCAAAGSNFTVWYGYYYWGQGTQVTVSS”, which “polyreactivity (PSR sort gate)” value is on record?
Answer: low polyreactivity

Question: With “QFQLVESGGGLVQAGGSLRLSCAASGSTFEKNAMGWYRQAPGKERDLVDAISNGVSTYYADSVKGRFTISRDNAKNSVFLQMISLKPEDTAVYFCAADLFFGAETVYYDKFDYWGQGTKVTVSS” as the sequence, how does the “polyreactivity (PSR sort gate)” value read?
Answer: low polyreactivity

Question: For “QVQLVESGGGLVQAGGSLRLSCAASGYTFYSNAMGWYRQAPGKETELVASIRSRGRSTYYADSVKGRFTISRDNAKNTVYLQMNSLKPEDTAVYYCAALPNKPAVYAYDYWGQGTQVTVSS”, which “polyreactivity (PSR sort gate)” value is on record?
Answer: low polyreactivity

Question: With “QVQLVESGGGLVQAGGSLRLSCAASGRTFLRYAMGWYRQAPGKERELVAAITYGGRTNYADSVKGRFTISRDNAKNTVYLQMNSLKPEDTAVYYCAADRTYYYGLRVYYWGQGTQVTVSS” as the sequence, how does the “polyreactivity (PSR sort gate)” value read?
Answer: high polyreactivity

Question: Which “polyreactivity (PSR sort gate)” value does the source give for “QVQLVESGGGLVQAGGSLRLSCAASGFIFSYYAMGWYRQAPGKERELVAAISRNGGRTYYADSVKGRFTISRDNAKNTVYLQMNSLKPEDTAVYYCATGKIREDDYWGQGTQVTVSS” here?
Answer: high polyreactivity

Question: With “QVQLVESGGGLVQAGGSLRLSCAASGSIFSYTMGWYRQAPGKERELVAAITSGGITYYADSVKGRFTISRDNAKNTVYLQMNSLKPEDTAVYYCNKDVGFTRPLYYWGQGTQVTVSS” as the sequence, how does the “polyreactivity (PSR sort gate)” value read?
Answer: low polyreactivity

Question: Which “polyreactivity (PSR sort gate)” value does the source give for “QVQLVESGGGLVQAGGSLRLSCAASGSIFRGYAMGWYRQAPGKERELVAAITSSAGSTYYADSVKGRFTISRDNAKNTVYLQMNSLKPEDTAVYYCNKYPRASRRGFDYWGQGTQVTVSS” here?
Answer: high polyreactivity

Question: For “QVQLVESGGGLVQAGGSLRLSCAASGRNFGLYAMGWYRQAPGTERELVAAISWGGGRTYYADSVKGRFTISRDNAKNTVYLQMNSLKPEDTAVYYCNAVYSPRYYVGGYDYWGQGTQVTVSS”, which “polyreactivity (PSR sort gate)” value is on record?
Answer: high polyreactivity

Question: For “QVQLVESGGGLVQAGGSLRLSCAASGRTFNSYAMGWYRPAPGKERELVATISSRGGNTFYADSVKGRFTISRDYAKNTVYLQMNRLKPEDTAVYYCAKPGYLRPSRYDYWGQGTQVTVSS”, which “polyreactivity (PSR sort gate)” value is on record?
Answer: high polyreactivity

Question: For “QVQLVESGGGLVQAGGSLRLSCAASGRIYTRNTMGWYRQAPGKERELVAAITSRGGSTYYADSVKGRFTISRDNAKNTVYLQMNSLKPEDTAVYYCAADKPRSYYYWGLGTQVTVSS”, which “polyreactivity (PSR sort gate)” value is on record?
Answer: high polyreactivity

Question: With “QVQLVESGGDLVQAGGSLRLSCAASGRTFRYYAMGWYRLAPGKERELVAAISSSGDRTYYADSVKGRFTISRDTAKNTVYLQLNSLKPEDTAVYYCAADRGARGDYCGQGTQVTVSS” as the sequence, how does the “polyreactivity (PSR sort gate)” value read?
Answer: high polyreactivity

Question: With “QVQLVESGGGLVQAGGSLRLSCAASGRTFLSYAMGWYRQAPGKEREFVASITLSGGSTYYADSVKGRFTISRDNAKNTVYLQMNSLKPEDTAVYYCNAELYWLPYDYWGQGTQVTVSS” as the sequence, how does the “polyreactivity (PSR sort gate)” value read?
Answer: low polyreactivity

Question: With “QVQLVESGGGLVQAGGSLRLSCAASGFTLYVNAMGWYRHAPGKERELVAAISRGTTTYYADSVKGRFTISRDNAKNTVYLQMNSLKPEDTAVYYCAGETGHPYEEYDYWGQGTQVTVSS” as the sequence, how does the “polyreactivity (PSR sort gate)” value read?
Answer: high polyreactivity

Question: With “QVQHVESGGGKVQAGGSLRLSCASSGFTIMSYAMGWYRQAPGKERELVAAISRSGGSTYYADSVKGRFTISRDKAKNTVYLQMISLKPEDTAVYYCAARSAFRKQFSRNNYWGQGSQVTVSS” as the sequence, how does the “polyreactivity (PSR sort gate)” value read?
Answer: high polyreactivity
